From paper PMC6771245, “CMKLR1-targeting peptide tracers for PET/MR imaging of breast cancer” (Theranostics, 2019)
Where “and” joins values, the source holds several entries; their conditions need not be identical. Equal values may be shown once. *1 amine or outer side, *2 acyl side, *3 side chain or, on linkers, in order; H or OH if unused. Where a SMILES comes first, the peptide text is derived from it. [ ]: non-standard residue; d: D form. The star is where a group is joined. X1 = O=C(O)CN1CCN(CC(=O)O)CCN(CC(=O)NCCCOCCOCCOCCCN*)CCN(CC(=O)O)CC1; DOTA = O=C(O)CN1CCN(CC(=O)O)CCN(CC(=O)*)CCN(CC(=O)O)CC1; NH(CH2)9CO = O=C(CCCCCCCCCN[*:1])[*:2]; Hyp = O=C(O)[C@@H]1C[C@@H](O)CN1; Tic = O=C(O)[C@@H]1Cc2ccccc2CN1; Cha = N[C@@H](CC1CCCCC1)C(=O)O; Cit = NC(=O)NCCC[C@H](N)C(=O)O; Suc = O=C(CCC(=O)[*:2])[*:1]; Octanoyl = CCCCCCCC(=O)*; Ahx = NCCCCCC(=O)O

Key:
huCMKLR1 [1] = target: T1, huCMKLR1 (Homo sapiens, UniProt Q99788); experiment: Competitive radioligand binding with ^125I-chemerin-9, membranes of HEK293a cells stably expressing huCMKLR1 and Gα16; conditions: unlabeled compound; radioligand ^125I-chemerin-9, 5 µg membrane, 1 h 37 °C; three independent experiments, mean ± SD; read-out: competition binding IC50 w/o ^natGa
T1 construct: expressed in transfected cells; host or cells: HEK293a (membrane preparations)
T1 sequence (Q99788 1-373): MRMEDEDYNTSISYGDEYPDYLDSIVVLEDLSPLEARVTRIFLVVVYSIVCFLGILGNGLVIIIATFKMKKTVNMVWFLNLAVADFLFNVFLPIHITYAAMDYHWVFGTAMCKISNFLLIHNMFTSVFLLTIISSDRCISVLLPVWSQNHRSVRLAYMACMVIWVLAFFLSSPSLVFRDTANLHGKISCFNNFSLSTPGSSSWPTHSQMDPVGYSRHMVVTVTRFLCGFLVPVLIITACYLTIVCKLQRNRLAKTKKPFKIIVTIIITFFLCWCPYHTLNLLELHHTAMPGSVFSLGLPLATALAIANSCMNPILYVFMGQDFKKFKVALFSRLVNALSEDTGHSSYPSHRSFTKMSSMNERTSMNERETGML
Protocol: (§1) For in vitro analysis, HEK293a stably transfected with huCMKLR1 and Gα16 were used. For the in vivo mouse model, the human breast cancer cell line DU4475 with endogenous CMKLR1 expression and the target-negative human lung carcinoma cell line A549 were used. All cell lines were obtained from ATCC/LGC Standards (Wesel, Germany) and were cultured in RPMI1640 medium containing 10% fetal bovine serum (both from Biochrom, Berlin, Germany) and, in case of transfected cells, selection agents G418 (Biochrom, Berlin, Germany) and zeocin (Invitrogen, Carlsbad, USA).
Competitive binding studies were performed with cell membrane preparations. […] […].
(§2) All statistical analyses were performed using GraphPad Prism 5.04. EC50/IC50 values were determined by nonlinear sigmoidal curve fitting with variable slope setting, and normalized response for competitive binding results. Multiple group comparisons were done by a two-way ANOVA and Bonferroni post hoc test. All presented data are based on independent experiments. Normalizations and statistics are further defined in each figure legend.

[2] = Determination of LogD7.4 values; type: physicochemical; conditions: shake-flask octanol/PBS pH 7.4; 3 µL of 1 mM solution, 300 µL per phase, vortex 1 min, centrifuged 5 min 10,000 x g; HPLC peak area octanol/buffer, both phases analysed
Protocol: Compounds (3 µL of a 1 mM solution) were diluted into 300 µL PBS pH 7.4 or octanol and mixed. 300 µL of the other phase was added, followed by vigorous mixing using a vortex shaker for one minute. The two phases were centrifuged (5 min, 10,000 x g). Following separation, 25 µL aliquots were removed for HPLC analysis. LogD7.4 was calculated by taking the logarithm of the ratio of the high-performance liquid chromatography (HPLC) peak area of each compound in octanol to the corresponding peak area in buffer. Consequently, logD7.4 values were based on analysis of both aqueous and octanol fractions.

huCMKLR1 [3] = target: T1, huCMKLR1; experiment: Calcium mobilization assay; type: cell-based; conditions: HEK293a huCMKLR1 Gα16 cells, Fluo-4 AM; three independent experiments, mean ± SD; read-out: Ca^2+ assay EC50
Protocol: as §1
Optical ViewPlate 96-well microplates (PerkinElmer, Waltham, USA) were coated with poly-D-lysine (10 µg/mL, 50 µL/well) for 30 minutes at 37 °C, washed with PBS and air dried before seeding 40,000 HEK293a huCMKLR1 Gα16 cells per well. The next day, cells were starved with serum-free medium for 30 minutes and incubated with loading medium consisting of serum-free medium with 2.5 mM probenicid (Sigma-Aldrich, St. Louis, USA) and 2 µM Fluo-4 AM (Thermo Fisher Scientific, Waltham, USA). After a loading time of 45 minutes, cells were washed with 100 μL C1 buffer (130 mM NaCl, 5 mM KCl, 10 mM 4-(2-hydroxyethyl)-1-piperazineethanesulfonic acid [HEPES], 2 mM CaCl2, 10 mM glucose) followed by 20 minutes of incubation in the dark. After another washing and incubation cycle, the cell plate was placed into the CellLux Calcium Imaging System (PerkinElmer, Waltham, USA) and the assay was performed automatically according to the following protocol. After a baseline measurement for 30 seconds, the ligands (prepared in C1 buffer with 0.5% BSA in double concentration and pipetted in a U-bottom plate) were added on top of the cells and the fluorescence intensity was recorded for further 60 seconds. Obtained raw data were analyzed using AssayPro (PerkinElmer, Waltham, USA). After spatial uniformity correction, maximum response values (F) were normalized to baseline values (F0) of each well using the following equation:
response = ΔF/F0 = (F - F0)/F0.
as §2

[4] = tested on: DU4475/A549 xenograft model; experiment: in vivo; conditions: mouse
Source text: (§3) For in vivo experiments, at least 8-week-old female athymic NMRI-Foxn1^nu /Foxn1^nu mice (Janvier Labs, Saint-Berthevin, France) were used. Animal care followed institutional guidelines and all experiments were approved by local animal research authorities. For the generation of tumor xenografts, 5 x 10^6 cells of both DU4475 and A549 cells were inoculated subcutaneously into the right and left shoulder, respectively (1:1 phosphate-buffered saline [PBS]/Matrigel Basement Membrane Matrix High Concentration, Corning, Corning, USA). Part of the animals received SW13 lung cancer cells as a CMKLR1-negative control tumor. For the analysis of biodistribution, only data of […] and A549 xenograft tumors are used. Tumors were allowed to grow for two to four weeks (tumor volume > 100 mm^3) after cell inoculation.
(§4) Radiolabeling of peptide-DOTA conjugates was carried out manually using ^177Lu from ITG Isotope Technologies Garching GmbH (Garching, Germany). A total of 50 µL (stock solution of peptide at 1 µg/µL in 10% DMSO in water) was added to 200 µL of acetate buffer (sodium acetate/acetic acid buffer, 0.4 M, pH 5.0) and 120 µL of gentisic solution prepared by dissolving 50 mg of gentisic acid in 1 mL of acetate buffer. The resulting mixture was then added to 35 µL of ^177Lu (1 GBq in aqueous 0.04 M HCl) and the reaction mixture was heated at 96 °C for 30 minutes followed by cooling for 10 minutes at room temperature. The product was then diluted with 5 mL of saline and used directly for animal experiments.
(§5) Tumor-bearing mice were injected with approximately 10 MBq of ^68Ga-labeled DOTA-peptide or 1 MBq of ^177Lu-labeled DOTA-peptide to the tail vein via a catheter. […] Tumor, blood, stomach, pancreas, small intestine, colon, liver, spleen, kidney, heart, lung, muscle and femur samples were weighed and uptake of radioactivity was measured by a gamma counter. To determine the effect of unlabeled ligand on the tumor uptake, 200 nmol CG34 peptide (100-fold excess) was co-injected.

in vivo = conditions: female, athymic NMRI-Foxn1^nu/Foxn1^nu, mouse, iv, 1 MBq, total radioactivity
Source text: as §3, §4, §5

Row | IC50 (huCMKLR1 [1]) | EC50 (huCMKLR1 [3]) [nM] | SMILES | logD [2] | also measured
1 | 0.66 nM and ~0.6 nM | – | C[C@@H](NC(=O)[C@H](Cc1ccccc1)NC(=O)[C@H](CCCNC(N)=O)NC(=O)CNC(=O)[C@@H]1C[C@@H](O)CN1C(=O)[C@H](CC1CCCCC1)NC(=O)[C@H](Cc1ccc(O)cc1)NC(=O)CCC(=O)NCCCOCCOCCOCCCNC(=O)CN1CCN(CC(=O)O)CCN(CC(=O)O)CCN(CC(=O)O)CC1)C(=O)N1Cc2ccccc2C[C@H]1C(=O)N[C@@H](CO)C(=O)O [DOTA-TTDS-CG34] ({X1-Suc}-Y[Cha][Hyp]G[Cit]F[dA][Tic]S-OH) | -1.01 ± 0.39 | –
2 | 0.65 ± 0.15 nM | 0.65 ± 0.1 | C[C@@H](NC(=O)[C@H](Cc1ccccc1)NC(=O)[C@H](CCCNC(N)=O)NC(=O)CNC(=O)[C@@H]1C[C@@H](O)CN1C(=O)[C@H](CC1CCCCC1)NC(=O)[C@H](Cc1ccc(O)cc1)NC(=O)CCCCCCCCCNC(=O)CN1CCN(CC(=O)O)CCN(CC(=O)O)CCN(CC(=O)O)CC1)C(=O)N1Cc2ccccc2C[C@H]1C(=O)N[C@@H](CO)C(=O)O [DOTA-ADX-CG34] ({DOTA}-[NH(CH2)9CO]Y[Cha][Hyp]G[Cit]F[dA][Tic]S-OH) | 1.35 ± 0.31 | –
3 | 1 nM | 0.4 | C[C@@H](NC(=O)[C@H](Cc1ccccc1)NC(=O)[C@H](CCCNC(N)=O)NC(=O)CNC(=O)[C@@H]1C[C@@H](O)CN1C(=O)[C@H](CC1CCCCC1)NC(=O)[C@@H](N)Cc1ccc(O)cc1)C(=O)N1Cc2ccccc2C[C@H]1C(=O)N[C@@H](CO)C(=O)O [CG34] (H-Y[Cha][Hyp]G[Cit]F[dA][Tic]S-OH) | – | –
4 | 0.44 ± 0.16 nM | 1.34 ± 0.14 | CCCCCCCC(=O)NCCCC[C@H](NC(=O)CN1CCN(CC(=O)O)CCN(CC(=O)O)CCN(CC(=O)O)CC1)C(=O)N[C@@H](Cc1ccc(O)cc1)C(=O)N[C@@H](CC1CCCCC1)C(=O)N1C[C@H](O)C[C@H]1C(=O)NCC(=O)N[C@@H](CCCNC(N)=O)C(=O)N[C@@H](Cc1ccccc1)C(=O)N[C@H](C)C(=O)N1Cc2ccccc2C[C@H]1C(=O)N[C@@H](CO)C(=O)O [DOTA-KCap-CG34] ({DOTA}-K(Octanoyl)Y[Cha][Hyp]G[Cit]F[dA][Tic]S-OH) | 1.29 ± 0.68 | –
5 | 0.13 ± 0.08 nM | 1.53 | CSCC[C@H](NC(=O)CNC(=O)[C@@H]1CCCN1C(=O)[C@H](CC1CCCCC1)NC(=O)[C@H](Cc1ccc(O)cc1)NC(=O)CCCCCNC(=O)CN1CCN(CC(=O)O)CCN(CC(=O)O)CCN(CC(=O)O)CC1)C(=O)N[C@@H](Cc1ccc(O)cc1)C(=O)N[C@@H](C)C(=O)N[C@@H](Cc1ccccc1)C(=O)N[C@H](Cc1ccccc1)C(=O)O [DOTA-AHX-CG36] ({DOTA-Ahx}-Y[Cha]PGMYAF[dF]-OH) | 2.27 ± 0.47 | –
6 | – | – | C[C@@H](NC(=O)[C@H](Cc1ccccc1)NC(=O)[C@H](CCCNC(N)=O)NC(=O)CNC(=O)[C@@H]1C[C@@H](O)CN1C(=O)[C@H](CC1CCCCC1)NC(=O)[C@H](Cc1ccc(O)cc1)NC(=O)CCCCCNC(=O)CN1CCN(CC(=O)O)CCN(CC(=O)O)CCN(CC(=O)O)CC1)C(=O)N1Cc2ccccc2C[C@H]1C(=O)N[C@@H](CO)C(=O)O [[^177Lu]Lu-DOTA-AHX-CG34, metal not drawn] ({DOTA-Ahx}-Y[Cha][Hyp]G[Cit]F[dA][Tic]S-OH) | – | DU4475 uptake after 24 hours as % of the 1 h-value [4]: approx. 64%; decrease of DU4475 tumor signal from one to 24 hours p.i. [4]: approximately 36%; higher uptake in DU4475 than A549 [4]: 1.4 fold; tissue uptake at 1 h (in vivo; A549 tumor uptake): 2.3 %ID/g; tissue uptake at 24 h (in vivo; A549 tumor uptake): 0.4 %ID/g; tissue uptake at 1 h (in vivo; DU4475 tumor uptake): 3.3 %ID/g; tissue uptake at 24 h (in vivo; DU4475 tumor uptake): 2.1 %ID/g; tissue uptake at 1 h (in vivo; kidneys uptake): 4.7 %ID/g; tissue uptake at 24 h (in vivo; kidneys uptake): 1 %ID/g; tissue uptake at 1 h (in vivo; lung uptake): 5.6 %ID/g; tissue uptake at 1 h (in vivo; spleen uptake): 5.8 %ID/g; tissue uptake at 24 h (in vivo; spleen uptake): 1.7 %ID/g
7 | 1.05 ± 0.81 nM | 0.79 ± 0.28 | C[C@@H](NC(=O)[C@H](Cc1ccccc1)NC(=O)[C@H](CCCNC(N)=O)NC(=O)CNC(=O)[C@@H]1C[C@@H](O)CN1C(=O)[C@H](CC1CCCCC1)NC(=O)[C@H](Cc1ccc(O)cc1)NC(=O)CCCCCNC(=O)CN1CCN(CC(=O)O)CCN(CC(=O)O)CCN(CC(=O)O)CC1)C(=O)N1Cc2ccccc2C[C@H]1C(=O)N[C@@H](CO)C(=O)O [DOTA-AHX-CG34] ({DOTA-Ahx}-Y[Cha][Hyp]G[Cit]F[dA][Tic]S-OH) | -0.96 ± 0.2 | –
8 | 0.1 nM | 0.9 | CSCC[C@H](NC(=O)CNC(=O)[C@@H]1CCCN1C(=O)[C@H](CC1CCCCC1)NC(=O)[C@@H](N)Cc1ccc(O)cc1)C(=O)N[C@@H](Cc1ccc(O)cc1)C(=O)N[C@@H](C)C(=O)N[C@@H](Cc1ccccc1)C(=O)N[C@H](Cc1ccccc1)C(=O)O [CG36] (H-Y[Cha]PGMYAF[dF]-OH) | – | –
